Measurements published in paper PMC2910870.
pKd: −log10 of the molar value.

Experiments:
Experiment in all cases: SPR
[1] = biological target: NL1A (rat neuroligin 1 cholinesterase-like region, with insert A, without insert B) (rat)
[2] = biological target: NL1B (rat neuroligin 1 cholinesterase-like region, with insert B, without insert A) (rat)
[3] = biological target: NL1Δ (rat neuroligin 1 cholinesterase-like region, without inserts A and B) (rat)
[4] = biological target: NL2Δ (rat neuroligin 2 cholinesterase-like region, without insert A) (rat)
[5] = biological target: NL3A1 (rat neuroligin 3 cholinesterase-like region, with insert A1, without insert A2) (rat)
[6] = biological target: NL3A2 (rat neuroligin 3 cholinesterase-like region, with insert A2, without insert A1) (rat)
[7] = biological target: NL3Δ (rat neuroligin 3 cholinesterase-like region, without inserts A1 and A2) (rat)
[8] = biological target: NL1AB (rat neuroligin 1 cholinesterase-like region, with inserts A and B) (rat) (UniProt Q62765)
[9] = biological target: NL3A1A2 (rat neuroligin 3 cholinesterase-like region, with inserts A1 and A2) (rat) (UniProt Q62889)
[10] = biological target: NL2A (rat neuroligin 2 cholinesterase-like region, with insert A) (rat) (UniProt Q62888)

β-NRX1+4 (mouse β-neurexin 1 LNS domain, with splice insert 4), sequence (P0DI97 86-288): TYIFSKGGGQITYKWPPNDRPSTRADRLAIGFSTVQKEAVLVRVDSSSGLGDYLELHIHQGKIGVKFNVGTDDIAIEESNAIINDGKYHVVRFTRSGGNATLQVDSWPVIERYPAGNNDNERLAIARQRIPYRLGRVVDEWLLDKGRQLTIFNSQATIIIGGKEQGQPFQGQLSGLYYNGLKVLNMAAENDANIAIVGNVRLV
β-NRX2+4 (rat β-neurexin 2 LNS domain, with splice insert 4), sequence (Q63376 87-290): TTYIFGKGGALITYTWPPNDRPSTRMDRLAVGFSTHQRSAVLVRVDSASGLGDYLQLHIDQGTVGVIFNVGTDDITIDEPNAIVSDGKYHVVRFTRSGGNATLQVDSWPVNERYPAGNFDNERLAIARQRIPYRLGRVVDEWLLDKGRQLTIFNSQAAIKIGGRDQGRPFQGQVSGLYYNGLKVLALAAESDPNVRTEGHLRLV

β-NRX1+4 (mouse β-neurexin 1 LNS domain, with splice insert 4) (from UniProt P0DI97 86-288) (domain or fragment)
pKd [1]: 5.68
pKd [2]: 5.56
pKd [3]: 5.81
pKd [4]: 5.45
pKd [5]: 4.92
pKd [6]: 4.66
pKd [7]: 4.62

β-NRX2+4 (rat β-neurexin 2 LNS domain, with splice insert 4) (from UniProt Q63376 87-290) (domain or fragment)
pKd [1]: 5.48
pKd [2]: 5.26
pKd [3]: 5.42
pKd [4]: 5.47
pKd [5]: 4.69
pKd [6]: 4.37
pKd [7]: 4.25

β-NRX1Δ4 (mouse β-neurexin 1 LNS domain, lacking splice insert 4) (domain or fragment)
pKd [1]: 6.07
pKd [8]: 5.92
pKd [2]: 5.94
pKd [3]: 6.08
pKd [4]: 6.02
pKd [5]: 5.13
pKd [9]: 5.18
pKd [6]: 5.15
pKd [7]: 5.09

β-NRX3+4 (mouse β-neurexin 3 LNS domain, with splice insert 4) (domain or fragment)
pKd [1]: 6.61
pKd [8]: 6.41
pKd [2]: 6.44
pKd [3]: 6.48
pKd [10]: 6.62
pKd [4]: 6.58
pKd [5]: 5.36
pKd [9]: 5.03
pKd [7]: 5.01

β-NRX3Δ4 (mouse β-neurexin 3 LNS domain, lacking splice insert 4) (domain or fragment)
pKd [1]: 6.11
pKd [3]: 5.99
pKd [10]: 6.43
pKd [4]: 6.38
pKd [5]: 5.20
pKd [9]: 4.96
pKd [6]: 4.95
pKd [7]: 5.00

β-NRX2Δ4 (rat β-neurexin 2 LNS domain, lacking splice insert 4) (domain or fragment)
pKd [1]: 5.83
pKd [8]: 5.64
pKd [2]: 5.66
pKd [3]: 6.04
pKd [4]: 6.15
pKd [5]: 5.04
pKd [9]: 4.81
pKd [7]: 4.78
